Data set [1] relates to HeLa Kyoto. Briefly: solubility in G1/S (NP-40 vs SDS abundance) (log2 ratio); higher = more soluble. As to conditions: cell cycle stage: G1/S.
In data set [2] the test system is HeLa Kyoto. The data set is described as follows: melting temperature (median over replicates), in situ; higher = more thermally stable.
Data set [3] concerns HeLa Kyoto. The data set is described as follows: solubility change mitosis vs G1/S (difference of NP-40 vs SDS log2 ratios) (log2 ratio difference); higher = more soluble in mitosis.
Data set [4] has as its system HeLa Kyoto. The data set is described as follows: thermal stability score vs G1/S (z-score of summed log2 fold changes over temperatures); higher = more thermally stable than in G1/S.
Where [5] appears, read: cell cycle stage: early G1 (4.5 h after nocodazole release).
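Throughout, for melting temperature (median over replicates), in situ: HeLa Kyoto cells synchronized by double thymidine or nocodazole block, proteins quantified by TMT10plex mass spectrometry, three independent biological replicates.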
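Throughout, for solubility change mitosis vs G1/S (difference of NP-40 vs SDS log2 ratios): synchronized HeLa Kyoto cells (double thymidine block for G1/S, nocodazole release for mitosis), protein amounts in NP-40 versus SDS lysates quantified by mass spectrometry, three biological replicates.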
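Throughout, for solubility in G1/S (NP-40 vs SDS abundance): HeLa Kyoto cells arrested at G1/S by double thymidine block, proteins quantified by TMT10plex mass spectrometry in mild NP-40 versus SDS extracts, three biological replicates.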
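Throughout, for thermal stability score vs G1/S (z-score of summed log2 fold changes over temperatures): synchronized HeLa Kyoto cells, proteins quantified by TMT10plex mass spectrometry, three biological replicates, mitosis taken 0.5 h after nocodazole release, G1/S directly after double thymidine block.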

In the case of “MLSESSSFLKGVMLGSIFCALITMLGHIRIGHGNRMHHHEHHHLQAPNKEDILKISEDERMELSKSFRVYCIILVKPKDVSLWAAVKETWTKHCDKAEFFSSENVKVFESINMDTNDMWLMMRKAYKYAFDKYRDQYNWFFLARPTTFAIIENLKYFLLKKDPSQPFYLGHTIKSGDLEYVGMEGGIVLSVESMKRLNSLLNIPEKCPEQGGMIWKISEDKQLAVCLKYAGVFAENAEDADGKDVFNTKSVGLSIKEAMTYHPNQVVEGCCSDMAVTFNGLTPNQMHVMMYGVYRLRAFGHIFNDALVFLPPNGSDND [C1GALT1C1]”, the “solubility in G1/S (log2)” value in data set [1] turned out to be 0.0342. For the same substance, the melting temperature came to 53.9 °C in data set [2] (cell cycle stage: G1/S) and 53.4 °C in data set [2] (cell cycle stage: mitosis). For the same substance, in data set [3], the “solubility change mitosis (log2)” value is -0.0947. Further, the thermal stability score was -0.0972 in data set [4] (setting [5]) and -0.609 in data set [4] (cell cycle stage: mitosis).
With “MDRSAEFRKWKAQCLSKADLSRKGSVDEDVVELVQFLNMRDQFFTTSSCAGRILLLDRGINGFEVQKQNCCWLLVTHKLCVKDDVIVALKKANGDATLKFEPFVLHVQCRQLQDAQILHSMAIDSGFRNSGITVGKRGKTMLAVRSTHGLEVPLSHKGKLMVTEEYIDFLLNVANQKMEENKKRIERFYNCLQHALERETMTNLHPKIKEKNNSSYIHKKKRNPEKTRAQCITKESDEELENDDDDDLGINVTIFPEDY [TYW3]”, the “solubility in G1/S (log2)” value in data set [1] came to 0.102. In addition, the melting temperature was found to be 55 °C in data set [2] (cell cycle stage: G1/S) and 54.9 °C in data set [2] (cell cycle stage: mitosis). Moreover, in data set [3], the “solubility change mitosis (log2)” value is -0.194. Further, the thermal stability score in data set [4] (setting [5]) is -0.67; in data set [4] (cell cycle stage: mitosis), -1.25.
Regarding EED, in data set [1], the “solubility in G1/S (log2)” value is -0.587. Further, the melting temperature came out at 49.7 °C in data set [2] (cell cycle stage: G1/S) and 50.2 °C in data set [2] (cell cycle stage: mitosis). For the same substance, the “solubility change mitosis (log2)” value in data set [3] is 0.102. For the same substance, the thermal stability score in data set [4] (setting [5]) was found to be 1.42; in data set [4] (cell cycle stage: mitosis), 1.21.
Regarding “MSELPGDVRAFLREHPSLRLQTDARKVRCILTGHELPCRLPELQVYTRGKKYQRLVRASPAFDYAEFEPHIVPSTKNPHQLFCKLTLRHINKCPEHVLRHTQGRRYQRALCKYEECQKQGVEYVPACLVHRRRRREDQMDGDGPRPREAFWEPTSSDEGGAASDDSMTDLYPPELFTRKDLGSTEDGDGTDDFLTDKEDEKAKPPREKATDEGRRETTVYRGLVQKRGKKQLGSLKKKFKSHHRKPKSFSSCKQPG [SURF2]”, the “solubility in G1/S (log2)” value in data set [1] was found to be 0.0911. Further, the results for the melting temperature in data set [2] (cell cycle stage: G1/S) and in data set [2] (cell cycle stage: mitosis) were 50.7 °C and 50.3 °C, respectively. In data set [3], the “solubility change mitosis (log2)” value came out at 0.0916. The thermal stability score in data set [4] (setting [5]) stood at 0.779; in data set [4] (cell cycle stage: mitosis), 0.703.
As to “MEWGSESAAVRRHRVGVERREGAAAAPPPEREARAQEPLVDGCSGGGRTRKRSPGGSGGASRGAGTGLSEVRAALGLALYLIALRTLVQLSLQQLVLRGAAGHRGEFDALQARDYLEHITSIGPRTTGSPENEILTVHYLLEQIKLIEVQSNSLHKISVDVQRPTGSFSIDFLGGFTSYYDNITNVVVKLEPRDGAQHAVLANCHFDSVANSPGASDDAVSCSVMLEVLRVLSTSSEALHHAVIFLFNGAEENVLQASHGFITQHPWASLIRAFINLEAAGVGGKELVFQTGPENPWLVQAYVSAAKHPFASVVAQEVFQSGIIPSDTDFRIYRDFGNIPGIDLAFIENGYIYHTKYDTADRILTDSIQRAGDNILAVLKHLATSDMLAAASKYRHGNMVFFDVLGLFVIAYPSRIGSIINYMVVMGVVLYLGKKFLQPKHKTGNYKKDFLCGLGITLISWFTSLVTVLIIAVFISLIGQSLSWYNHFYVSVCLYGTATVAKIILIHTLAKRFYYMNASAQYLGEVFFDISLFVHCCFLVTLTYQGLCSAFISAVWVAFPLLTKLCVHKDFKQHGAQGKFIAFYLLGMFIPYLYALYLIWAVFEMFTPILGRSGSEIPPDVVLASILAGCTMILSSYFINFIYLAKSTKKTMLTLTLVCAITFLLVCSGTFFPYSSNPANPKPKRVFLQHMTRTFHDLEGNAVKRDSGIWINGFDYTGISHITPHIPEINDSIRAHCEENAPLCGFPWYLPVHFLIRKNWYLPAPEVSPRNPPHFRLISKEQTPWDSIKLTFEATGPSHMSFYVRAHKGSTLSQWSLGNGTPVTSKGGDYFVFYSHGLQASAWQFWIEVQVSEEHPEGMVTVAIAAHYLSGEDKRSPQLDALKEKFPDWTFPSAWVCTYDLFVF [ERMP1]”, the “solubility in G1/S (log2)” value in data set [1] is -0.0493. The melting temperature was 58.8 °C in data set [2] (cell cycle stage: G1/S) and 56.7 °C in data set [2] (cell cycle stage: mitosis). In addition, the “solubility change mitosis (log2)” value in data set [3] is -0.18. The thermal stability score was -3 in data set [4] (setting [5]) and -4.39 in data set [4] (cell cycle stage: mitosis).
For the substance “MATYLEFIQQNEERDGVRFSWNVWPSSRLEATRMVVPLACLLTPLKERPDLPPVQYEPVLCSRPTCKAVLNPLCQVDYRAKLWACNFCFQRNQFPPAYGGISEVNQPAELMPQFSTIEYVIQRGAQSPLIFLYVVDTCLEEDDLQALKESLQMSLSLLPPDALVGLITFGRMVQVHELSCEGISKSYVFRGTKDLTAKQIQDMLGLTKPAMPMQQARPAQPQEHPFASSRFLQPVHKIDMNLTDLLGELQRDPWPVTQGKRPLRSTGVALSIAVGLLEGTFPNTGARIMLFTGGPPTQGPGMVVGDELKIPIRSWHDIEKDNARFMKKATKHYEMLANRTAANGHCIDIYACALDQTGLLEMKCCANLTGGYMVMGDSFNTSLFKQTFQRIFTKDFNGDFRMAFGATLDVKTSRELKIAGAIGPCVSLNVKGPCVSENELGVGGTSQWKICGLDPTSTLGIYFEVVNQHNTPIPQGGRGAIQFVTHYQHSSTQRRIRVTTIARNWADVQSQLRHIEAAFDQEAAAVLMARLGVFRAESEEGPDVLRWLDRQLIRLCQKFGQYNKEDPTSFRLSDSFSLYPQFMFHLRRSPFLQVFNNSPDESSYYRHHFARQDLTQSLIMIQPILYSYSFHGPPEPVLLDSSSILADRILLMDTFFQIVIYLGETIAQWRKAGYQDMPEYENFKHLLQAPLDDAQEILQARFPMPRYINTEHGGSQARFLLSKVNPSQTHNNLYAWGQETGAPILTDDVSLQVFMDHLKKLAVSSAC [SEC23B]”, the “solubility in G1/S (log2)” value in data set [1] was 0.0443. For the same substance, the melting temperature in data set [2] (cell cycle stage: G1/S) is 50.4 °C; in data set [2] (cell cycle stage: mitosis), 50.9 °C. Besides, in data set [3], the “solubility change mitosis (log2)” value is -0.175. In addition, the thermal stability score in data set [4] (setting [5]) turned out to be 0.832; in data set [4] (cell cycle stage: mitosis) it was 0.395.

The values above are taken from the supplement of paper PMC5998384.
